T1: p63 (Bos taurus, UniProt Q28175)
T1 construct: RPE-membrane proteins were then solubilized in phosphate-buffered saline; from tissue; host or cells: bovine retinal pigment epithelium (RPE) membrane fraction, CHAPS-solubilized, gel-filtered, 125I-labelled
T1 sequence (Q28175 2-533 limits assumed): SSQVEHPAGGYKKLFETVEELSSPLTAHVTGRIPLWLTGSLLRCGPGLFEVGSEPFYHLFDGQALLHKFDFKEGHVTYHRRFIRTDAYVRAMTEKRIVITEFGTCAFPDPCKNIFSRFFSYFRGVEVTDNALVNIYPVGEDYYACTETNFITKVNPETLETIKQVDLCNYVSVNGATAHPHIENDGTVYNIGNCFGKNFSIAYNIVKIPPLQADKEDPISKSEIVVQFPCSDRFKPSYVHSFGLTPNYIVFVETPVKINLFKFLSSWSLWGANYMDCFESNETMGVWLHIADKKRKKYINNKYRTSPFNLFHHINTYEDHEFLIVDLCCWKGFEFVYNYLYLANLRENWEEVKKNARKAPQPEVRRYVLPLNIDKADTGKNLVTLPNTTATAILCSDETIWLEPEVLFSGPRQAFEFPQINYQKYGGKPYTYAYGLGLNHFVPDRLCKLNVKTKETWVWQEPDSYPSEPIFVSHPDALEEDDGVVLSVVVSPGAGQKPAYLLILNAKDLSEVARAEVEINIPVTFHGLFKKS

B1: p32: 32 kDa membrane associated bovine RPE protein that complexes with p63; stereo specific 11-cis-retinol dehydrogenase (SEQ ID NO: 10) (protein)
chain: MWLPLLLGVLLWAALWLLRDRQCLPASDAFIFITGCDSGFGRLLALRLDQRGFRVLASCLTPSGAEDLQRVASSRLHTTLLDVTDPQSIRQAVKWVETHVGEAGLFGLVNNAGVAGIIGPTPWQTREDFQRVLNVNTLGPIGVTLALLPLLLQARGRVINITSVLGRLAANGGGYCVSKFGLEAFSDSLRRDVAPFGVRVSIVEPGFFRTPVTNLETLEDTLQACWARLPPATQALYGEAFLTKYLRVQQRIMNMICDPDLAKVSRCLEHALTARHPRTRYSPGWDAKLLWLPASYLPARLVDAVLAWVLPKPAQTVY
B2: protein encoded by SEQ ID NO: 35: murine liver membrane associated protein of about 34 kilodaltons with 9-cis, 11-cis and 13-cis retinol dehydrogenase activity (protein)
chain: MWLPLLLGALLWAVLWLLRDRQSLPASDAFIFITGCDSGFGRLLALQLDQKGFQVLAGCLTPSGAEDLQQMASSRLHTTLLDITDPQNVQQVAKWVKTRVGETGLFGLVNNAGVAGIIGPTPWLTQDDFQRVLSVNTLGPIGVTLALLPLLQQARGRVVNITSVLGRIAANGGGYCVSKFGLEAFSDSLRRDMAPFGVQVSIVEPGFFRTPVTNLESLESTLKACWARLPPAIQAHYGEAFLDTYLRVQRRIMNLICDPELTKVTSCLEHALTARHPRTRYSPGWDAKLLWLPASYLPARVVDAVLTWILPRPAQSVS

Legend:
[1] = biological target: T1, p63; test: Immunoprecipitation of radiolabelled RPE-membrane proteins with mAb A52 / rabbit antisera to p63, SDS-PAGE; assay type: binding; conditions: solubilized bovine RPE membranes, immunoprecipitation with mAb A52 or rabbit antisera to p63
Description: Bovine RPE-cells were isolated and membrane fractions were prepared as described in Bavik et al, J. Biol. Chem. 266:[…] (1991) incorporated by reference. RPE-membrane proteins were then solubilized in phosphate-buffered saline (PBS) (20 mM sodium phosphate, PH 7.2, containing 150 mM NaCl), containing 1% 3-[(3-cholamido-propyl) -dimethylammonio] -1-propane sulfonic acid (CHAPS) at 1 mg of total membrane protein/ml of buffer. Remaining material was removed by ultracentrifugation at 100,000×g for 1 hour. Next, 500 ul aliquots of the solubilized membranes were subjected to gel filtration on a Sepharose 6 column equilibrated in PBS containing 1% CHAPS. The column was operated at a flow rate of 0.2 ml/min and 500 ul fractions collected. Proteins eluted in fractions corresponding to globular proteins of Mr 150,000 to 400,000 were then radiolabelled with Na^125I using the well-known Chloramin T procedure. […]
Aliquots of the radiolabelled proteins were then diluted in PBS containing 1% CHAPS and 1% bovine serum albumin and subsequently subjected to immunoprecipitation using the mAb A52 to p63 (5 ug per incubation) or using two polyclonal rabbit antisera to p63 (3 ul of serum per incubation) See Bavik et al., J. Biol. Chem. 267:23035-23042 (1992). Non-specific immunoprecipitation was monitored in parallel incubations using an unrelated mAb and preimmune rabbit serum. […]

[2] = Retinol dehydrogenase activity of p32 in microsomal fractions of transfected COS-cells, HPLC; assay type: biochemical, bovine
Description: Specifically, the EcoRI—insert of pλ321 was cloned into the EcoR1-digested eucaryotic expression vector pSG5. See Green et al., Nucl. Acid Res. 16:39 (1988). COS-cells were maintained in Dulbecco's minimal essential medium supplemented with 10% fetal bovine serum, 2mM glutamine and antibiotics. The cells were seeded into 60 mm petri dishes (4×10^5 cells per dish) and transfected with 5 ug of plasmid per dish using DEAE dextran. Control cells were transfected with equal amounts of the parental vector alone. After treatment with 10% DMSO for 2 minutes, the cells were incubated for 72-96 hours, and then harvested by scraping the dishes with a rubber policeman, and the cells thereafter collected by low speed centrifugation. The collected cell pellets were next resuspended in hypotonic buffer (10 mM Tris-HCl, pH 7.5 containing 1mM phenyl-methylsufonyl fluoride), put on ice for 20 minutes, and then homogenized using a Dounce homogenator. Unbroken cells and debris were removed by centrifugation (3000×g)for 15 minutes. Microsomes were subsequently collected by ultra-centrifugation at 100,000×g for 1 hour; membrane pellets were stored at −80° C. until further analyzed.
Next, some of the enzymatic properties of p32 expressed in COS-cells were determined in a manner similar to that as described in the study of 11-cis-retinol dehydrogenase activity in microsomal fractions of RPE cells. See Saari et al., Anal. Biochem 213:[…] (1993).
In particular, enzymatic activity of p32 was assayed by incubating the microsomal fractions from the aforementioned transfected cells, and from control cells lacking p32, with varying combinations of the different stereo isomeric substrates, i.e., 11-cis-retinol or all-trans-retinol, in the presence of either cofactor NAD+ or NADP.
To assay for p32 activity in transfected cells, the final concentration of 11-cis-retinol and all-trans-retinol (obtained from Sigma Chemical Co.) in the incubations was reduced to 100 uM. Twenty ug of total membrane protein from COS-cells expressing p32 or from control cells were used in each incubation, and thereafter a 30 minute incubation at 37° C. in the presence or absence of NAD+ or NADP followed. Reaction mixtures were then extracted with n-hexane, and organic phases removed and dried under argon. The dried organic phases were then separately dissolved in ethanol and aliquots were analyzed on a normal phase silica HPLC column developed with n-hexane containing 4% dioxane at 1 ml per minute. See Saari et al. J. Biol. Chem. 257:13329-13333 (1982). Effluent was monitored at 330 nm. Under these conditions, 11-cis-retinaldehyde and 11-cis retinol eluted at 7 minutes and 22.5 minutes, respectively, and all-trans-retinaldehyde and all-trans retinol eluted at 8 minutes and 23 minutes, respectively.

[3] = Retinol dehydrogenase activity in membranes of baculovirus-infected Sf9 cells, reversed phase HPLC; assay type: biochemical, murine
Description: In order to generate a protein from a eukaryotic system, a 1.2 kilobase EcoRI fragment of the SEQ ID NO: 35 plasmid described supra was subcloned into a baculovirus expression vector, using known methods. Then, the vector was used to transfect Spodoptera frugiperda (“Sf9”) cells, again using known methods. Recombinant baculoviruses were then amplified by several rounds of amplification, and were then used in fresh Sf9 cells. A parallel set of experiments were also carried out, but using recombinant virus containing an unrelated gene, whose expression product had no retinol dehydrogenase activity.
Expressed protein was then assessed for enzyme activity. In brief, membranes equivalent to 25 ug of total membrane protein from infected cells were incubated in phosphate buffered saline (PBS), containing 100 uM of 9-cis retinol, or all-trans retinol. Final volumes of incubated materials were 200 ul. Either cofactor NAD+ or cofactor NADP was also added, to a final concentration of 200 uM. The mixture was incubated for 20 minutes at 37° C., after which alkaline ethanol was added. The mixture was then extracted with 2.0 ml of n-hexane. The organic phase was then removed and dried under argon. Dried phases were dissolved in ethanol, and aliquots were analyzed by reversed phase HPLC, using a C18 column, and a mobile phase of acetonitrile/water (85:15 v/v). Elution was at 1.0 ml/min, with effluent being monitored at 350 nm.

[4] = experiments not elaborated upon

Molecule	coprecipitation with p63 (binding to p63) [1]	11-cis-retinol dehydrogenase activity (formation of 11-cis-retinaldehyde) ([2]; 100 uM 11-cis-retinol, cofactor NAD+, 30 minute at 37° C.)	formation of all-trans retinaldehyde from all-trans retinol ([2]; 100 uM all-trans-retinol, 30 minute at 37° C.)	11-cis-retinol dehydrogenase activity ([2]; cofactor NADP)	9-cis retinol dehydrogenase activity ([2]; further experiments, no details)	oxidation of 9-cis retinol, efficiency relative to mock infected cells ([3]; 100 uM 9-cis retinol, 20 minutes at 37° C.)	9-cis retinaldehyde formation ([3]; 100 uM 9-cis retinol, cofactor NADP 200 uM)	11-cis RDH activity [3, 4]	13-cis RDH activity [3, 4]
B1	coprecipitated	active	no significant formation of all-trans retinaldehyde	not enzymatically-active	has 9-cis retinol dehydrogenase activity	–	–	–	–
B2	–	–	–	–	–	8-10 times	Background levels	observed	13-cis RDH activity

Reference: patent US6399344B1, “Isolated proteins having retinol dehydrogenase activity, and which associate with retinol binding receptors” (Ludwig Institute for Cancer Research, priority 1994, dated 2002)
